Laboratory results as given in PMC2172719 (The Journal of Cell Biology, 2003).

T1: His-Ubc13 (yeast, UniProt P52490 1-153)
T1 sequence: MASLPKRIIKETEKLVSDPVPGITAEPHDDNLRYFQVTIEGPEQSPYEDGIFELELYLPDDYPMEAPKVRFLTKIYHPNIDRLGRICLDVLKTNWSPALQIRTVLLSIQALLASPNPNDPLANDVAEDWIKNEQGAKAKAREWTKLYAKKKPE


What was measured:
His-Ubc13 = biological target: T1, His-Ubc13; assay: SEC
SEC = biological target: the molecule itself; assay: SEC

binding result (His-Ubc13)	Binder	stoichiometry N (SEC)
binds	His-Mms2 (natural protein) MSKVPRNFRLLEELEKGEKGFGPESCSYGLADSDDITMTKWNGTILGPPHSNHENRIYSLSIDCGPNYPDSPPKVTFISKINLPCVNPTTGEVQTDFHTLRDWKRAYTMETLLLDLRKEMATPANKKLRQPKEGETF	–
–	His-tagged p97 ΔN (domain or fragment) not shown	6
